Laboratory results as given in the supplement of paper PMC10065799, “High-throughput profiling of sequence recognition by tyrosine kinases and SH2 domains using bacterial peptide display” (eLife, 2023).

How the values were obtained:
Grb2 SH2 = Grb2 SH2 (UniProt P62993); experiment: SH2 binding enrichment of the phosphorylated peptide, bacterial display (enrichment ratio); higher = better substrate or ligand; peptides without Tyr show the background
SHP2-C SH2 = experiment: as above
c-Src SH2 = experiment: as above
AncSZ = experiment: phosphorylation enrichment, bacterial display (enrichment ratio); higher = better substrate or ligand; peptides without Tyr show the background
Jak2 = Jak2 (UniProt O60674); experiment: as above
Fes = Fes (UniProt P07332); experiment: as above
Fyn = Fyn (UniProt P06241); experiment: as above
c-Abl (mouse) = experiment: as above
EPHB1 = EPHB1 (UniProt P54762); experiment: as above
Fer (mouse) = experiment: as above
EPHB2 = EPHB2 (UniProt P29323); experiment: as above
FGFR1 = FGFR1 (UniProt P11362); experiment: as above
MERTK = MERTK (UniProt Q12866); experiment: as above
FGFR3 = FGFR3 (UniProt P22607); experiment: as above
c-Src = experiment: as above
Hck = Hck (UniProt P08631); experiment: as above
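Wherever SH2 binding enrichment of the phosphorylated peptide, bacterial display is given: peptide library displayed on the E. coli surface as eCPX fusions, selected cells deep-sequenced, score is each peptide's frequency after selection divided by its frequency in the input.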
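Wherever phosphorylation enrichment, bacterial display is given: 11-residue human phosphosite peptides and single-mutation variants displayed on the E. coli surface, counted by deep sequencing, each peptide's frequency after selection divided by its frequency in the unselected input library; frequency after pTyr selection over input frequency; kinase dosed for 20-30% of maximal phosphorylation in three min.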

Chain of EPHB2 (P29323 whole entry, looked up): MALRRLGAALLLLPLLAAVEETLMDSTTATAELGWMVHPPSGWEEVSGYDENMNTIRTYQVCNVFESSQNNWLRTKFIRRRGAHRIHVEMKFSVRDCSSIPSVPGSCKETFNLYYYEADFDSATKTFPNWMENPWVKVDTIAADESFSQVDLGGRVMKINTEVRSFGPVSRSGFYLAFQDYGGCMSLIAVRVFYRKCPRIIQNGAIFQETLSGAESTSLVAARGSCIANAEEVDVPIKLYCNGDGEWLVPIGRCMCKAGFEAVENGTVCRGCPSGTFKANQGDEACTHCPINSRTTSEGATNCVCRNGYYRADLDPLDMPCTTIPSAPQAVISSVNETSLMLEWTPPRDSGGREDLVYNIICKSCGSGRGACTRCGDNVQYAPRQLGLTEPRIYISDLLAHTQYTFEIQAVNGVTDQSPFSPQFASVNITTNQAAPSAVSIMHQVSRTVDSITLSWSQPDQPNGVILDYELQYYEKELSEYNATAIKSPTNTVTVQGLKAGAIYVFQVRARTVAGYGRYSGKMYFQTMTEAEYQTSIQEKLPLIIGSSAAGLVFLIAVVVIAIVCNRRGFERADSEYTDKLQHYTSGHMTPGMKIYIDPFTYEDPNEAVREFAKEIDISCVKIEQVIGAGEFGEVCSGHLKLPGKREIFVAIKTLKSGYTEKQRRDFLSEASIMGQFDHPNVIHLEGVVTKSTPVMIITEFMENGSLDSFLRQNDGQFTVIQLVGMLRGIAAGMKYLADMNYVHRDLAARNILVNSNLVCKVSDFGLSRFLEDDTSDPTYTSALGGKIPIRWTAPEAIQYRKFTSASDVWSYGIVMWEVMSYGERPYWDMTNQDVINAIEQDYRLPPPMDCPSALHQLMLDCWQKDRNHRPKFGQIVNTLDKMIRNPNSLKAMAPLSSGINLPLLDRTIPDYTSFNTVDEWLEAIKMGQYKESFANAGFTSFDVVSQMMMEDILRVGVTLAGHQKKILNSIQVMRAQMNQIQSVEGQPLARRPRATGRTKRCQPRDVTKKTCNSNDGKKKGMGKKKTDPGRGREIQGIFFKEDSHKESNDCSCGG
Chain of MERTK (Q12866 whole entry, looked up): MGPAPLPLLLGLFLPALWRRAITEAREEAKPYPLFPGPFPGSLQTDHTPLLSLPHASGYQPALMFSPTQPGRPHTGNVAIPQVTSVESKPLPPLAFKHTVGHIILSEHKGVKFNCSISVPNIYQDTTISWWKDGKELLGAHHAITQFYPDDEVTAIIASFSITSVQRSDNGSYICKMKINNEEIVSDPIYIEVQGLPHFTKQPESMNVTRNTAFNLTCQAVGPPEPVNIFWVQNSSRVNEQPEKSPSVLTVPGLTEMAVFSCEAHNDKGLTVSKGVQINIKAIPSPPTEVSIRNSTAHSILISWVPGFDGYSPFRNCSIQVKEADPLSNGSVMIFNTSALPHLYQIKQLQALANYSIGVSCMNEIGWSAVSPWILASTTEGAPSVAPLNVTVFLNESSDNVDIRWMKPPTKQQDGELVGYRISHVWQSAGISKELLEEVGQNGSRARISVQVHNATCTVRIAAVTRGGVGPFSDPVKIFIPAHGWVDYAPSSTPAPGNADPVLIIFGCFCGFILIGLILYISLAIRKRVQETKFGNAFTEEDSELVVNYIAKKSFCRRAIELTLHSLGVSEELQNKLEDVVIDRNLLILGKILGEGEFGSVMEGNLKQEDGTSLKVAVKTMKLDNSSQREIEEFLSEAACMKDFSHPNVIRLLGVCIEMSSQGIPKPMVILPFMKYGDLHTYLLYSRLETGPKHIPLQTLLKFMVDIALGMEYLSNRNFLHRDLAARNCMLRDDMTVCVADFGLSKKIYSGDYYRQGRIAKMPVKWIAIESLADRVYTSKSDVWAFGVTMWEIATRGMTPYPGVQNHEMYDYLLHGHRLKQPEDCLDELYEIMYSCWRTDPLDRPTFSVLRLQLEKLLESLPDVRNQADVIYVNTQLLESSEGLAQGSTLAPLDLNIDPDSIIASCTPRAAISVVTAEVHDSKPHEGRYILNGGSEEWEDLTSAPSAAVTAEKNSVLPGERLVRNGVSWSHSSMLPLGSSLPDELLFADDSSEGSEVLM
Chain of FGFR3 (P22607 whole entry, looked up): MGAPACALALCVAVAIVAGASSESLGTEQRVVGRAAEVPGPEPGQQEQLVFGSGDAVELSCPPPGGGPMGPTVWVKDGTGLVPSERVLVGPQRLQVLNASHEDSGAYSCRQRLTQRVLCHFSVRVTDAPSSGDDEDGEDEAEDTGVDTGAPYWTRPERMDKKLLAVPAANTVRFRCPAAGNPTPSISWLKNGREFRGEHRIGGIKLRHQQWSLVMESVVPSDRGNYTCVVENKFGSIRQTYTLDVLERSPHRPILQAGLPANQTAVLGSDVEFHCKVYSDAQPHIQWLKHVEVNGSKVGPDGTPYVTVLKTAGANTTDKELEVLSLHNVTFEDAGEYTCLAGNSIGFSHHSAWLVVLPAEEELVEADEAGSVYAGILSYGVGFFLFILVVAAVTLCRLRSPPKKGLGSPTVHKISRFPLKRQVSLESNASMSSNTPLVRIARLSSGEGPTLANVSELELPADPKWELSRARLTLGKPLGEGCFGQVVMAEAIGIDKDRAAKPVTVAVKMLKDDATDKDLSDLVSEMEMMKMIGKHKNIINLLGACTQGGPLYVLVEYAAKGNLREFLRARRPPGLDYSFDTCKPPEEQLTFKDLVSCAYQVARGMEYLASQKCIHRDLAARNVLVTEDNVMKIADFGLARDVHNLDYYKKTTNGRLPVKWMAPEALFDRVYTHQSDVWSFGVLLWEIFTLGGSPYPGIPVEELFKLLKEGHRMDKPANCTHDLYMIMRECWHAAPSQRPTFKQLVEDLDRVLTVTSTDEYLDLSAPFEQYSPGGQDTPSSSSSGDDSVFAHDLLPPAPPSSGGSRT
Chain of FGFR1 (P11362 whole entry, looked up): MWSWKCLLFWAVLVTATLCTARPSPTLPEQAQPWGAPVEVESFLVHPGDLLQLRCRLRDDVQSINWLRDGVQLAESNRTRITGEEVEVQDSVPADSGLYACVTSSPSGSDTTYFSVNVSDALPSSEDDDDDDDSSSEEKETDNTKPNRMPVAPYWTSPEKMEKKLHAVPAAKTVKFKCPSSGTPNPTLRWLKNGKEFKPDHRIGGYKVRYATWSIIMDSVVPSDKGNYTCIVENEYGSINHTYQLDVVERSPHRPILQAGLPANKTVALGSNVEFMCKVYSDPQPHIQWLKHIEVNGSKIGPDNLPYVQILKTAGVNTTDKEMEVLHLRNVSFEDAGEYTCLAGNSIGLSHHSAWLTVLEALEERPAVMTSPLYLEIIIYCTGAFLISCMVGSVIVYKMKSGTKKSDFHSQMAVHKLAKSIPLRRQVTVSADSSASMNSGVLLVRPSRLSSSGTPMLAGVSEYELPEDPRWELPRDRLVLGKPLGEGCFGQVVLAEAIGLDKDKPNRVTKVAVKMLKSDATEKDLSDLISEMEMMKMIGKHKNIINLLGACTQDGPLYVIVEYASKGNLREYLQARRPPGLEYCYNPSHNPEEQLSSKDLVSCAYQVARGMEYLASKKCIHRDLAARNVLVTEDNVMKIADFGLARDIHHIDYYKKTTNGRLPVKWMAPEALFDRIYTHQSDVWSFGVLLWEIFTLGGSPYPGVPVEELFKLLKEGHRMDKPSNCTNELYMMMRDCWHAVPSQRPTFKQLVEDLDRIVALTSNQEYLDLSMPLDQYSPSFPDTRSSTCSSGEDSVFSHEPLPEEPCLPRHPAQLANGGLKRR
Chain of Fes (P07332 whole entry, looked up): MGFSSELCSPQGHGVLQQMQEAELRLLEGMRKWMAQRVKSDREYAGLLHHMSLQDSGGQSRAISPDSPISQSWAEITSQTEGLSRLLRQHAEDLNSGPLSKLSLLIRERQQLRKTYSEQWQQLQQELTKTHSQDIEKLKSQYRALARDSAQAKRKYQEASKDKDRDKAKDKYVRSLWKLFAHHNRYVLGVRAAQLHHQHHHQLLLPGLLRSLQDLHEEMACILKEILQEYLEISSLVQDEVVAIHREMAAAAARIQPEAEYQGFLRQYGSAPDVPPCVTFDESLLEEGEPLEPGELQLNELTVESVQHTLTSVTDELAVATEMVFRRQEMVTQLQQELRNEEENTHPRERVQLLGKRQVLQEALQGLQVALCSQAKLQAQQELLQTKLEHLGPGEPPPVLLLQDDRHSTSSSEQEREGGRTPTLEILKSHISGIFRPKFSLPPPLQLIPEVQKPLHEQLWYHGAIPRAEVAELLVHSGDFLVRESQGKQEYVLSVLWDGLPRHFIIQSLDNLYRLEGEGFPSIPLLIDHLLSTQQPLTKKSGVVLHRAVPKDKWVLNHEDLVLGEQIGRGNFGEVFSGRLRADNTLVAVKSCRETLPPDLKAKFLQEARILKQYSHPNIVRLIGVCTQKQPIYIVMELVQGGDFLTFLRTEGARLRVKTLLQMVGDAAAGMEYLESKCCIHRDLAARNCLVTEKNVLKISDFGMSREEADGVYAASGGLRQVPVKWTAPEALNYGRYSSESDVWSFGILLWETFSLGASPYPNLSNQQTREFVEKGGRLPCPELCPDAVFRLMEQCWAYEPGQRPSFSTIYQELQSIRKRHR
Chain of Hck (P08631 whole entry, looked up, the tested form may be a part): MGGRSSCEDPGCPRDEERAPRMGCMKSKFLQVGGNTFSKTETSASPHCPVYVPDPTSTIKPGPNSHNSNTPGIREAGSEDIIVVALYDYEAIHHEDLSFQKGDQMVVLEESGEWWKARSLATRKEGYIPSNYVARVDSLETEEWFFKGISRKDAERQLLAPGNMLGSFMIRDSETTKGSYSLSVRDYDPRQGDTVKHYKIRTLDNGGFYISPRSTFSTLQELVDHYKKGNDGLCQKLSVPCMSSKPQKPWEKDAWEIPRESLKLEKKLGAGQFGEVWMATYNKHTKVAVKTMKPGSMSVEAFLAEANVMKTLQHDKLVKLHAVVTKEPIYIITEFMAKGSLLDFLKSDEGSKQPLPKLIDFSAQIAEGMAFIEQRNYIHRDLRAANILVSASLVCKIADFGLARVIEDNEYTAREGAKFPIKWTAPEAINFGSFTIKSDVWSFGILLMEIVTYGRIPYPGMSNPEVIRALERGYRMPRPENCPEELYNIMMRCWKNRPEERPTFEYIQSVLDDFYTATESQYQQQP

SH2 binding enrichment (Grb2 SH2) | SH2 binding enrichment (SHP2-C SH2) | SH2 binding enrichment (c-Src SH2) | Sequence | phosphorylation enrichment (AncSZ) | phosphorylation enrichment (Jak2) | phosphorylation enrichment (Fes) | phosphorylation enrichment (Fyn) | phosphorylation enrichment (c-Abl (mouse)) | phosphorylation enrichment (EPHB1) | phosphorylation enrichment (Fer (mouse)) | phosphorylation enrichment (EPHB2) | phosphorylation enrichment (FGFR1) | phosphorylation enrichment (MERTK) | phosphorylation enrichment (FGFR3) | phosphorylation enrichment (c-Src) | phosphorylation enrichment (Hck)
0.839 | 0.525 | 0.724 | DYCDLYGGEKF [PTPN11_Y66_Y63C] | 1.72 | 0.914 | 1.05 | 1.39 | 0.747 | 2.93 | 0.967 | 2.14 | 3.45 | 0.477 | 2.56 | 2.39 | 2.31
0.838 | 0.664 | 0.847 | ICGVSYDEFRF [CFTR_Y512_F508C_YF] | 1.51 | 1.21 | 1.5 | 0.764 | 1.03 | 0.663 | 1.17 | 0.642 | 0.553 | 0.571 | 0.967 | 1.49 | 0.842
0.821 | 0.685 | 1.2 | TEHMAYCPIQC [SHC4_Y403_Q400H] | 0.72 | 0.778 | 0.821 | 0.466 | 0.661 | 0.489 | 0.557 | 0.524 | 0.458 | 0.416 | 0.638 | 0.764 | 0.805
0.807 | 0.398 | 0.478 | QMEKIYTQQIQ [CCNB1IP1_Y125] | 1.12 | 1.07 | 1.06 | 0.663 | 1.03 | 0.747 | 0.651 | 0.466 | 0.673 | 1.19 | 0.5 | 1.55 | 0.628

Further lines, the sequence ahead of its results:

Sequence | SH2 binding enrichment (Grb2 SH2) | SH2 binding enrichment (SHP2-C SH2) | SH2 binding enrichment (c-Src SH2) | phosphorylation enrichment (AncSZ) | phosphorylation enrichment (Jak2) | phosphorylation enrichment (Fes) | phosphorylation enrichment (Fyn) | phosphorylation enrichment (c-Abl (mouse)) | phosphorylation enrichment (EPHB1) | phosphorylation enrichment (Fer (mouse)) | phosphorylation enrichment (EPHB2) | phosphorylation enrichment (FGFR1) | phosphorylation enrichment (MERTK) | phosphorylation enrichment (FGFR3) | phosphorylation enrichment (c-Src) | phosphorylation enrichment (Hck)
CPPEVYAIMRG [NTRK1_Y757] | 1.3 | 0.9 | 0.814 | 1.24 | 0.87 | 1.12 | 1.25 | 0.695 | 0.976 | 0.51 | 0.564 | 0.455 | 1.16 | 0.765 | 2.39 | 2
YIGVTYKNEED [PDGFRA_Y993] | 1.35 | 1.52 | 1.89 | 1 | 0.961 | 1.05 | 0.528 | 0.666 | 0.602 | 0.555 | 0.539 | 0.71 | 0.433 | 0.822 | 0.461 | 0.509
QNTGHYSSDNT [TMEFF2_Y361] | 0.581 | 0.506 | 0.347 | 0.461 | 0.443 | 0.532 | 0.545 | 0.49 | 0.446 | 0.43 | 0.442 | 0.474 | 0.544 | 0.691 | 0.704 | 0.544
KHMADYPDCKF [SOX11_Y113_Y116C_YF] | 1.18 | 0.859 | 0.573 | 0.92 | 0.879 | 1.04 | 0.423 | 0.703 | 0.532 | 0.495 | 0.556 | 0.587 | 0.456 | 0.74 | 0.397 | 0.475
